In patent US20240398951A1 (WISTAR INSTITUTE OF ANATOMY AND BIOLOGY, published 2024):

Molecular target: T1, human follicle stimulating hormone receptor (FSHR) (human, UniProt P23945 18-695)
T1 sequence (looked up): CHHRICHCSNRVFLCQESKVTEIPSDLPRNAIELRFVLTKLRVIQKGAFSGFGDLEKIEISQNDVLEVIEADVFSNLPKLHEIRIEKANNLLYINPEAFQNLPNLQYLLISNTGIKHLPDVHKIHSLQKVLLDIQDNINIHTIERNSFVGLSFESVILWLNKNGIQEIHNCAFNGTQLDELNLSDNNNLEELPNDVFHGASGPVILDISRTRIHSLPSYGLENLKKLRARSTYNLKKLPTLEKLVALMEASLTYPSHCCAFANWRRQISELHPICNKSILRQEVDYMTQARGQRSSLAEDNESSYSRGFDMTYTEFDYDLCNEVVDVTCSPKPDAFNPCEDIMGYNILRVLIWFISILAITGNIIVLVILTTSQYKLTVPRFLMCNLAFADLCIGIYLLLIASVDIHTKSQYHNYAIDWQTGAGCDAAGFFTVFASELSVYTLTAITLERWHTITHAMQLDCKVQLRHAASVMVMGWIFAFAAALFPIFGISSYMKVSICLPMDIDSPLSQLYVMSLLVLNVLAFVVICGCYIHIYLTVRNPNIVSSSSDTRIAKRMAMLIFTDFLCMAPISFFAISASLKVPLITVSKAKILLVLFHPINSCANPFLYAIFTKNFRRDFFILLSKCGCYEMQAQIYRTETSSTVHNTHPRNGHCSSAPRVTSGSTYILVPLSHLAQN
Assay: cell-based or functional assay

B1: D2AP11-TCE (FSHRxCD3 DNA encoded bispecific T cell engager) (bispecific antibody)
chain: DIQMTQSPSSLSASVGDRVTISCRASESVDNYGISFLNWFQQKPGKAPKLLIYAASNQRSGVPSRFSGSGSGTDFTLTISSLQPEDFATYFCQQSKEVPWTFGQGTKVEIKRGGGGSGGGGSGGGGSEVQLVESGGGLVQPGGSLRLSCSFSGFSLSTSGMGVGWIRQAPGKGLEWVAHIWWDDDKRYNPALKSRFTLSVDRSKNTLYLQMNSLRAEDTATYYCVQINYGNYRFDNWGHGTLVTVSSGGGGSEVQLVESGGGLVQPGGSLRLSCAASGYSFTGYTMNWVRQAPGKGLEWVALINPYKGVSTYNQKFKDRFTISVDKSKNTAYLQMNSLRAEDTAVYYCARSGYYGDSDWYFDVWGQGTLVTVSSGGGGSGGGGSGGGGSDIQMTQSPSSLSASVGDRVTITCRASQDIRNYLNWYQQKPGKAPKLLIYYTSRLESGVPSRFSGSGSGTDYTLTISSLQPEDFATYYCQQGNTLPWTFGQGTKVEIKSS
  EC50 of dose dependent killing of OVCAR3 cells (xCELLigence, human PBMCs/T cells): 0.0159 µg/mL
  EC50 of dose dependent killing of OVISE-FSHR cells (xCELLigence, human PBMCs/T cells): 0.0247 µg/mL
  EC50 of killing of OVCAR4 cells in presence of human PBMCs (xCELLigence): 0.0113 µg/mL
  potency of killing of OVCAR4 cells compared to the anti-FSHR ab D2AP11: ~1000 fold
